According to US20110150896A1 (published 2011):

Biological target: full-length PcrV protein (recombinant, 1-294) (in the biotin-labeled form: PEO-maleimide activated biotin on the inserted cysteine)
Test: SPR

B1: 1F3 (antibody, V domains shown)
VH: QVQLQQPGAELVKPGASVKLSCKASGYSFTSYWMHWVKQRPGQGLEWIGEINPSNGRTNYNEKFNTKATLTVDTSSSTAYMQLSSLTSEDSAVYYCVLYGNYVVYYTMDYWGQGTSVTVSS
VL: QIVLTQSPTIMSASLGEEITLTCSASTSVSYMEWYQQKSGTSPKILIYTTSKLASGVPSRFSGSGSGTFYSLTISSVEAEDAADYYCHQWRNYPFTFGSGTKLEIKR
- Kd: 370 pM

B2: 2A4 (antibody, V domains shown)
VH: DVQLQESGPGLVKPSQSLSLTCTVTGYSITSDYAWNWIRQFPGNKLEWMGYITYNGDTSYNPSLKSRISIARDTSKNQFFLQLNSVTTEDTATYSCAGSRNYYGAWFAYWGQGTLVTVSA
VL: DIVMTQSHKFMSTSIGDRVSINYKASQYVGTTVAWYQQKSGHSPKLLIYRASTRHTGVPDRFTGSGSGTDFTLNISNVQSEDLADYFCQQYCSSPLTFGAGTYLEVKR
- Kd: 350 pM
